Consider two variants from FireProtDB (doi:10.1046/j.1432-1327.1999.00751.x).

B1: Azurin, P00282 (parent)
chain: MLRKLAAVSLLSLLSAPLLAAECSVDIQGNDQMQFNTNAITVDKSCKQFTVNLSHPGNLPKNVMGHNWVLSTAADMQGVVTDGMASGLDKDYLKPDDSRVIAHTKLIGSGEKDSVTFDVSKLKEGEQYMFFCTFPGHSALMKGTLTLK

Values joined by “and” are separate entries in the source; they are usually repeats but may differ in a detail not shown here. Equal entries are not always repeated.

Variants of B1 are the subject of the data set. As to conditions: Pseudomonas aeruginosa (strain ATCC 15692 / DSM 22644 / CIP 104116 / JCM 14847 / LMG 12228 / 1C / PRS 101 / PAO1); pH 7.2; 20 °C; GdnHCl; CD + Fluorescence; Tris-HCl 50 mM; reversible: yes; structure 5AZU; whole UniProt chain shown.

Regarding I27S, the “ddG of mutation (higher = less stable)” value was 15.1 kJ/mol and 12.6 kJ/mol; the denaturant m value was 3.6 kcal/mol/M and 3.4 kcal/mol/M; the “denaturant midpoint (higher = more stable)” value is 1.61 M and 1.02 M; the unfolding free energy was 24.3 kJ/mol and 14.2 kJ/mol.

Turning to F130S, the “ddG of mutation (higher = less stable)” value is 19.2 kJ/mol and 15.5 kJ/mol; the denaturant m value is 3.6 kcal/mol/M and 3.2 kcal/mol/M; the “denaturant midpoint (higher = more stable)” value is 1.24 M and 0.86 M; the unfolding free energy is 20.1 kJ/mol and 11.3 kJ/mol.
